Laboratory results: US11008403 (dated 2021)
Values joined by “and” are separate entries in the source; they are usually repeats but may differ in a detail not shown here. Equal values may be shown once. Read-outs that look alike come from different tables or passages of the source.

Experiments:
human TfR ECD [1] = target: human TfR ECD (human); assay: SPR
cyno TfR ECD [2] = target: T1, cyno TfR ECD (cynomolgus); assay: SPR
T1 chain: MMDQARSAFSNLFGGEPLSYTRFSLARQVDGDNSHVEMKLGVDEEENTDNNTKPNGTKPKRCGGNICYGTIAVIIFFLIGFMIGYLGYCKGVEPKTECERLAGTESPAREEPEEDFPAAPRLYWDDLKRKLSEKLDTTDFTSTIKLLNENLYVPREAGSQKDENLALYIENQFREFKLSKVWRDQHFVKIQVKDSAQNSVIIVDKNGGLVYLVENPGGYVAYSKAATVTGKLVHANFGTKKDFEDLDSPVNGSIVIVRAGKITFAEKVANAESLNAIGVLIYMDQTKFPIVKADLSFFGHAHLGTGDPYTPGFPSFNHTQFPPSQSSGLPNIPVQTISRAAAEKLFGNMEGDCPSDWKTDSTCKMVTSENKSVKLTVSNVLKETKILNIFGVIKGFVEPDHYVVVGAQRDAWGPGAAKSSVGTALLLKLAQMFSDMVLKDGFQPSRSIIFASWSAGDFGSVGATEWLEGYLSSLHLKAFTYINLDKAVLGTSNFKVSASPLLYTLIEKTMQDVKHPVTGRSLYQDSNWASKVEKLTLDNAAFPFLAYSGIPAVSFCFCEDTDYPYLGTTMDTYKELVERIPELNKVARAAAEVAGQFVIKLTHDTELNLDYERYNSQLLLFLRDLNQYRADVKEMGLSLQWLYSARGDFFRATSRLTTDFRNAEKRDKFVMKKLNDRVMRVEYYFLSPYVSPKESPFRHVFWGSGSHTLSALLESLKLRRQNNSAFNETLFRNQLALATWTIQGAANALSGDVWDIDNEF

human TfR ECD [3] = target: human TfR ECD (human); assay: SPR; remark: listed apart in the source
cyno FcRn = target: T2, cyno FcRn (cynomolgus, UniProt Q8SPV9); assay: SPR, pH 6.0
T2 chain 1: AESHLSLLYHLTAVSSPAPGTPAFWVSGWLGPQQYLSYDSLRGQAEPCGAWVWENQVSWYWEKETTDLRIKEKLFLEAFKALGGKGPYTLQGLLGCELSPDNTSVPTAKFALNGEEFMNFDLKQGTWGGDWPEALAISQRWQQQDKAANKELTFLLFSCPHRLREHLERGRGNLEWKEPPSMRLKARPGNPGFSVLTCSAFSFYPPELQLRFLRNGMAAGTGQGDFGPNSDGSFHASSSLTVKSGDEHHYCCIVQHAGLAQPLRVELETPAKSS
T2 chain 2: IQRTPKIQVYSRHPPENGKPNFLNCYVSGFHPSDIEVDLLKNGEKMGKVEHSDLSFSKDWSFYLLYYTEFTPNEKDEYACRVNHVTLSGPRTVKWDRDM

human FcRn = human FcRn (human, UniProt P55899); assay: SPR, pH 6.0
cyno TfR ECD [4] = target: T1, cyno TfR ECD; assay: SPR
human TfR ECD [5] = target: human TfR ECD (human); assay: SPR; remark: listed apart in the source
Target sequence in this assay (chain, as listed by the source): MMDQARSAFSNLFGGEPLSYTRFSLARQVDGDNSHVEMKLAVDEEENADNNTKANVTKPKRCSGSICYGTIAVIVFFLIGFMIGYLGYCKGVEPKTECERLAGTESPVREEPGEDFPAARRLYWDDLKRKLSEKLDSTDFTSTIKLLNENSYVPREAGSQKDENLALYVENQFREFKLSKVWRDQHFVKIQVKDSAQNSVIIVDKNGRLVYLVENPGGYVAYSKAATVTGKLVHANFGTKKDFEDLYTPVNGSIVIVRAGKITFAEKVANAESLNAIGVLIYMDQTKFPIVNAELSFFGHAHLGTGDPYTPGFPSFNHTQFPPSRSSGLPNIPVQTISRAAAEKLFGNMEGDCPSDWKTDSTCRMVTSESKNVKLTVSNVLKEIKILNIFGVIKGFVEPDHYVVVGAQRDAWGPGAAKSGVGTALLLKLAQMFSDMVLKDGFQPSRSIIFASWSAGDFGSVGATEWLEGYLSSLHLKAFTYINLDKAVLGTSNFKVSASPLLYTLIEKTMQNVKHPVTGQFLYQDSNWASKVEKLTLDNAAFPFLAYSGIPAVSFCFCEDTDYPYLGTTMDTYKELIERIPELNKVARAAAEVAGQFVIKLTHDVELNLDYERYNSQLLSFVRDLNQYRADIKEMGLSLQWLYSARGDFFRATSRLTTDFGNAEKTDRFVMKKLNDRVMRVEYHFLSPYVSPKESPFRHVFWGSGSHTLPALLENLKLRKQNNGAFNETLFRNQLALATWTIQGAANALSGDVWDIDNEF

B1: Hu15G11.HC34A Fab (antibody, V domains shown)
VH: EVQLVQSGAEVKKPGASVKVSCKASGYTFTSYWAHWVRQAPGQRLEWIGEINPTNGRTNYIEKFKSRATLTVDKSASTAYMELSSLRSEDTAVYYCARGTRAYHYWGQGTMVTVSS
VL: DIQMTQSPSSLSASVGDRVTITCRASDNLYSNLAWYQQKPGKSPKLLVYDATNLADGVPSRFSGSGSGTDYTLTISSLQPEDFATYYCQHFWGTPLTFGQGTKVEIK
In the case of B1, the Kd (human TfR ECD [1]) is reported as 7.14 nM and the Kd (cyno TfR ECD [2]) is reported as 32.6 nM.

B2: Hu15G11.HC53A Fab (antibody, V domains shown)
VH: EVQLVQSGAEVKKPGASVKVSCKASGYTFTSYWMHWVRQAPGQRLEWIGEINPANGRTNYIEKFKSRATLTVDKSASTAYMELSSLRSEDTAVYYCARGTRAYHYWGQGTMVTVSS
VL: DIQMTQSPSSLSASVGDRVTITCRASDNLYSNLAWYQQKPGKSPKLLVYDATNLADGVPSRFSGSGSGTDYTLTISSLQPEDFATYYCQHFWGTPLTFGQGTKVEIK
For B2, the Kd (human TfR ECD [1]) was 12.9 nM and the Kd (cyno TfR ECD [2]) was 51.8 nM.

B3: Hu15G11.HC32A Fab (antibody, V domains shown)
VH: EVQLVQSGAEVKKPGASVKVSCKASGYTFTSAWMHWVRQAPGQRLEWIGEINPTNGRTNYIEKFKSRATLTVDKSASTAYMELSSLRSEDTAVYYCARGTRAYHYWGQGTMVTVSS
VL: DIQMTQSPSSLSASVGDRVTITCRASDNLYSNLAWYQQKPGKSPKLLVYDATNLADGVPSRFSGSGSGTDYTLTISSLQPEDFATYYCQHFWGTPLTFGQGTKVEIK
In the case of B3, the Kd (human TfR ECD [1]) is reported as 7.47 nM.

B4: Hu15G11.HC52A Fab (antiTfR.52A.Fab) (antibody, V domains shown)
VH: EVQLVQSGAEVKKPGASVKVSCKASGYTFTSYWMHWVRQAPGQRLEWIGEIAPTNGRTNYIEKFKSRATLTVDKSASTAYMELSSLRSEDTAVYYCARGTRAYHYWGQGTMVTVSS
VL: DIQMTQSPSSLSASVGDRVTITCRASDNLYSNLAWYQQKPGKSPKLLVYDATNLADGVPSRFSGSGSGTDYTLTISSLQPEDFATYYCQHFWGTPLTFGQGTKVEIK
B4 was tested, and the Kd (human TfR ECD [1]) was 34.6 nM and 44.4 nM, the Kd (cyno TfR ECD [2]) was 117 nM and the Kd (human TfR ECD [3]) was 55 nM.

B5: Hu15G11.HC51A Fab (antibody, V domains shown)
VH: EVQLVQSGAEVKKPGASVKVSCKASGYTFTSYWMHWVRQAPGQRLEWIGEANPTNGRTNYIEKFKSRATLTVDKSASTAYMELSSLRSEDTAVYYCARGTRAYHYWGQGTMVTVSS
VL: DIQMTQSPSSLSASVGDRVTITCRASDNLYSNLAWYQQKPGKSPKLLVYDATNLADGVPSRFSGSGSGTDYTLTISSLQPEDFATYYCQHFWGTPLTFGQGTKVEIK
Work on B5 yielded a Kd (human TfR ECD [1]) of 23.9 nM and a Kd (cyno TfR ECD [2]) of 105 nM.

B6: antiTfR.52A.M108L.Fab (antibody, V domains shown)
VH: EVQLVQSGAEVKKPGASVKVSCKASGYTFTSYWMHWVRQAPGQRLEWIGEIAPTNGRTNYIEKFKSRATLTVDKSASTAYMELSSLRSEDTAVYYCARGTRAYHYWGQGTLVTVSS
VL: DIQMTQSPSSLSASVGDRVTITCRASDNLYSNLAWYQQKPGKSPKLLVYDATNLADGVPSRFSGSGSGTDYTLTISSLQPEDFATYYCQHFWGTPLTFGQGTKVEIK
For B6, the Kd (human TfR ECD [3]) was 72.2 nM.

B7: Anti-TfR2/6266.hIgG1.LALAPG.YTE (antibody)
chain 1: EVQLVQSGAEVKKPGASVKVSCKASGYTFTSYWMHWVRQAPGQRLEWIGEINPTNGRTNYIEKFKSRATLTVDKSASTAYMELSSLRSEDTAVYYCARGTRAYHYWGQGTMVTVSSASTKGPSVFPLAPSSKSTSGGTAALGCLVKDYFPEPVTVSWNSGALTSGVHTFPAVLQSSGLYSLSSVVTVPSSSLGTQTYICNVNHKPSNTKVDKKVEPKSCDKTHTCPPCPAPEAAGGPSVFLFPPKPKDTLYITREPEVTCVVVDVSHEDPEVKFNWYVDGVEVHNAKTKPREEQYNSTYRVVSVLTVLHQDWLNGKEYKCKVSNKALGAPIEKTISKAKGQPREPQVYTLPPSREEMTKNQVSLSCAVKGFYPSDIAVEWESNGQPENNYKTTPPVLDSDGSFFLVSKLTVDKSRWQQGNVFSCSVMHEALHNHYTQKSLSLSPGK
chain 2: DIQMTQSPSSLSASVGDRVTITCRASDNLYSNLAWYQQKPGKSPKLLVYDATNLADGVPSRFSGSGSGTDYTLTISSLQPEDFATYYCQHFAGTPLTFGQGTKVEIKRTVAAPSVFIFPPSDEQLKSGTASVVCLLNNFYPREAKVQWKVDNALQSGNSQESVTEQDSKDSTYSLSSTLTLSKADYEKHKVYACEVTHQGLSSPVTKSFNRGEC
chain 3: not shown
chain 4: not shown
B7 showed a Kd (cyno FcRn) of 200 nM and a Kd (human FcRn) of 300 nM.

B8: Anti-TfR.52A/6266.hIgG1.LALAPG.YTE (antibody)
chain 1: EVQLVQSGAEVKKPGASVKVSCKASGYTFTSYWMHWVRQAPGQRLEWIGEIAPTNGRTNYIEKFKSRATLTVDKSASTAYMELSSLRSEDTAVYYCARGTRAYHYWGQGTMVTVSSASTKGPSVFPLAPSSKSTSGGTAALGCLVKDYFPEPVTVSWNSGALTSGVHTFPAVLQSSGLYSLSSVVTVPSSSLGTQTYICNVNHKPSNTKVDKKVEPKSCDKTHTCPPCPAPEAAGGPSVFLFPPKPKDTLYITREPEVTCVVVDVSHEDPEVKFNWYVDGVEVHNAKTKPREEQYNSTYRVVSVLTVLHQDWLNGKEYKCKVSNKALGAPIEKTISKAKGQPREPQVYTLPPSREEMTKNQVSLSCAVKGFYPSDIAVEWESNGQPENNYKTTPPVLDSDGSFFLVSKLTVDKSRWQQGNVFSCSVMHEALHNHYTQKSLSLSPGK
chain 2: DIQMTQSPSSLSASVGDRVTITCRASDNLYSNLAWYQQKPGKSPKLLVYDATNLADGVPSRFSGSGSGTDYTLTISSLQPEDFATYYCQHFWGTPLTFGQGTKVEIKRTVAAPSVFIFPPSDEQLKSGTASVVCLLNNFYPREAKVQWKVDNALQSGNSQESVTEQDSKDSTYSLSSTLTLSKADYEKHKVYACEVTHQGLSSPVTKSFNRGEC
chain 3: not shown
chain 4: not shown
Work on B8 yielded a Kd (cyno FcRn) of 200 nM and a Kd (human FcRn) of 200 nM.

B9: Anti-TfR2/6266.hIgG1.LALAPG (antibody)
chain 1: EVQLVQSGAEVKKPGASVKVSCKASGYTFTSYWMHWVRQAPGQRLEWIGEINPTNGRTNYIEKFKSRATLTVDKSASTAYMELSSLRSEDTAVYYCARGTRAYHYWGQGTMVTVSSASTKGPSVFPLAPSSKSTSGGTAALGCLVKDYFPEPVTVSWNSGALTSGVHTFPAVLQSSGLYSLSSVVTVPSSSLGTQTYICNVNHKPSNTKVDKKVEPKSCDKTHTCPPCPAPEAAGGPSVFLFPPKPKDTLMISRTPEVTCVVVDVSHEDPEVKFNWYVDGVEVHNAKTKPREEQYNSTYRVVSVLTVLHQDWLNGKEYKCKVSNKALGAPIEKTISKAKGQPREPQVYTLPPSREEMTKNQVSLSCAVKGFYPSDIAVEWESNGQPENNYKTTPPVLDSDGSFFLVSKLTVDKSRWQQGNVFSCSVMHEALHNHYTQKSLSLSPGK
chain 2: DIQMTQSPSSLSASVGDRVTITCRASDNLYSNLAWYQQKPGKSPKLLVYDATNLADGVPSRFSGSGSGTDYTLTISSLQPEDFATYYCQHFAGTPLTFGQGTKVEIKRTVAAPSVFIFPPSDEQLKSGTASVVCLLNNFYPREAKVQWKVDNALQSGNSQESVTEQDSKDSTYSLSSTLTLSKADYEKHKVYACEVTHQGLSSPVTKSFNRGEC
chain 3: not shown
chain 4: not shown
For B9, the Kd (cyno FcRn) was 1200 nM and the Kd (human FcRn) was 1100 nM.

B10: Anti-TfR.52A/6266.hIgG1.LALAPG (antibody)
chain 1: EVQLVQSGAEVKKPGASVKVSCKASGYTFTSYWMHWVRQAPGQRLEWIGEIAPTNGRTNYIEKFKSRATLTVDKSASTAYMELSSLRSEDTAVYYCARGTRAYHYWGQGTMVTVSSASTKGPSVFPLAPSSKSTSGGTAALGCLVKDYFPEPVTVSWNSGALTSGVHTFPAVLQSSGLYSLSSVVTVPSSSLGTQTYICNVNHKPSNTKVDKKVEPKSCDKTHTCPPCPAPEAAGGPSVFLFPPKPKDTLMISRTPEVTCVVVDVSHEDPEVKFNWYVDGVEVHNAKTKPREEQYNSTYRVVSVLTVLHQDWLNGKEYKCKVSNKALGAPIEKTISKAKGQPREPQVYTLPPSREEMTKNQVSLSCAVKGFYPSDIAVEWESNGQPENNYKTTPPVLDSDGSFFLVSKLTVDKSRWQQGNVFSCSVMHEALHNHYTQKSLSLSPGK
chain 2: DIQMTQSPSSLSASVGDRVTITCRASDNLYSNLAWYQQKPGKSPKLLVYDATNLADGVPSRFSGSGSGTDYTLTISSLQPEDFATYYCQHFWGTPLTFGQGTKVEIKRTVAAPSVFIFPPSDEQLKSGTASVVCLLNNFYPREAKVQWKVDNALQSGNSQESVTEQDSKDSTYSLSSTLTLSKADYEKHKVYACEVTHQGLSSPVTKSFNRGEC
chain 3: not shown
chain 4: not shown
With B10 the Kd (cyno FcRn) was 1200 nM and the Kd (human FcRn) was 800 nM.

B11: Hu7A4.v15 Fab (antibody, V domains shown)
VH: EVQLVQSGAEVKKPGASVKVSCKGSGYTFTDYAMHWVRQAPGQGLEWMGGISTYFGRTNYNQKFKGRVTMTVDTSISTAYMELSRLRSDDTAVYYCARGLSGNYVMDYWGQGTTVTVSS
VL: DIVMTQSPDSLAVSLGERATINCRASESVDSYGNSFMHWYQQKPGQPPKLLIYRASNLESGVPDRFSGSGSRTDFTLTISSLQAEDVAVYYCQQSNEAPPTFGQGTKLEIK
B11 was tested, and the Kd (cyno TfR ECD [4]) was 4.28 nM and the Kd (human TfR ECD [5]) was 0.348 nM.
